Starred links: 1 amine or outer side, 2 acyl side, 3 side chain; linkers in the order of their positions; H or OH if unused. Groups on a side chain read outwards from the residue. *: point of attachment. C18 diacid = O=C(O)CCCCCCCCCCCCCCCCC(=O)*; γGlu = O=C(O)[C@H](CCC(=O)[*:2])N[*:1]; AEEA = NCCOCCOCC(=O)O

First the molecules themselves.
B1: acylated GLP-1R antagonist analog conjugate (SEQ ID NO: 16) (peptide)
peptide: Ac-DVSSYLEEEAARLFIAWLVK([AEEA-AEEA-γGlu-C18 diacid])GGPSSGAPPPS-NH2
SMILES: CC[C@H](C)[C@H](NC(=O)[C@H](Cc1ccccc1)NC(=O)[C@H](CC(C)C)NC(=O)[C@H](CCCNC(=N)N)NC(=O)[C@H](C)NC(=O)[C@H](C)NC(=O)[C@H](CCC(=O)O)NC(=O)[C@H](CCC(=O)O)NC(=O)[C@H](CCC(=O)O)NC(=O)[C@H](CC(C)C)NC(=O)[C@H](Cc1ccc(O)cc1)NC(=O)[C@H](CO)NC(=O)[C@H](CO)NC(=O)[C@@H](NC(=O)[C@H](CC(=O)O)NC(C)=O)C(C)C)C(=O)N[C@@H](C)C(=O)N[C@@H](Cc1c[nH]c2ccccc12)C(=O)N[C@@H](CC(C)C)C(=O)N[C@H](C(=O)N[C@@H](CCCCNC(=O)COCCOCCNC(=O)COCCOCCNC(=O)CC[C@H](NC(=O)CCCCCCCCCCCCCCCCC(=O)O)C(=O)O)C(=O)NCC(=O)NCC(=O)N1CCC[C@H]1C(=O)N[C@@H](CO)C(=O)N[C@@H](CO)C(=O)NCC(=O)N[C@@H](C)C(=O)N1CCC[C@H]1C(=O)N1CCC[C@H]1C(=O)N1CCC[C@H]1C(=O)N[C@@H](CO)C(N)=O)C(C)C
B2: GLP-1R antagonist analog (SEQ ID NO: 9) (peptide)
peptide: Ac-DVSSYLEEQAVREFIAWLVKGGPSSGAPPPS-NH2
B3: GLP-1R antagonist analog (SEQ ID NO: 10) (peptide)
peptide: DLSSYLEEEAVRLFIEWLKNGGPSSGAPPPS
modifications: N-terminus acetylated; C-terminal amide
B4: acylated GLP-1R antagonist analog conjugate (SEQ ID NO: 15) (peptide)
peptide: Ac-DVSSYLEEEAVRLFIAWLVK([AEEA-AEEA-γGlu-C18 diacid])GGPSSGAPPPS-NH2
SMILES: CC[C@H](C)[C@H](NC(=O)[C@H](Cc1ccccc1)NC(=O)[C@H](CC(C)C)NC(=O)[C@H](CCCNC(=N)N)NC(=O)[C@@H](NC(=O)[C@H](C)NC(=O)[C@H](CCC(=O)O)NC(=O)[C@H](CCC(=O)O)NC(=O)[C@H](CCC(=O)O)NC(=O)[C@H](CC(C)C)NC(=O)[C@H](Cc1ccc(O)cc1)NC(=O)[C@H](CO)NC(=O)[C@H](CO)NC(=O)[C@@H](NC(=O)[C@H](CC(=O)O)NC(C)=O)C(C)C)C(C)C)C(=O)N[C@@H](C)C(=O)N[C@@H](Cc1c[nH]c2ccccc12)C(=O)N[C@@H](CC(C)C)C(=O)N[C@H](C(=O)N[C@@H](CCCCNC(=O)COCCOCCNC(=O)COCCOCCNC(=O)CC[C@H](NC(=O)CCCCCCCCCCCCCCCCC(=O)O)C(=O)O)C(=O)NCC(=O)NCC(=O)N1CCC[C@H]1C(=O)N[C@@H](CO)C(=O)N[C@@H](CO)C(=O)NCC(=O)N[C@@H](C)C(=O)N1CCC[C@H]1C(=O)N1CCC[C@H]1C(=O)N1CCC[C@H]1C(=O)N[C@@H](CO)C(N)=O)C(C)C
B5: GLP-1R antagonist analog (SEQ ID NO: 12) (peptide)
peptide: Ac-DVSSYLEEEAVRLFIAWLVKGGPSSGAPPPSC-NH2

The assay concerns the target human GLP-1 receptor (GLP-1R) (human, UniProt P43220 24-463). Kind of assay: cell-based or functional assay.
As for B1, the “In vitro activity compared with comparative substance (%); IC50 of cAMP inhibition in hGLP-1R CHO cells with 0.1 nM GLP-1” value stood at 13.5%.

As for B2, the “In vitro activity compared with comparative substance (%); IC50 of cAMP inhibition in hGLP-1R CHO cells with 0.1 nM GLP-1” value was 189%.

B3: the “In vitro activity compared with comparative substance (%); IC50 of cAMP inhibition in hGLP-1R CHO cells with 0.1 nM GLP-1” value is 250%.

For the molecule B4, the “In vitro activity compared with comparative substance (%); IC50 of cAMP inhibition in hGLP-1R CHO cells with 0.1 nM GLP-1” value was 14.3%.

Turning to B5, the “In vitro activity compared with comparative substance (%); IC50 of cAMP inhibition in hGLP-1R CHO cells with 0.1 nM GLP-1” value came out at 189%.

Values taken from patent publication EP4603506A1, “NOVEL GLP-1 RECEPTOR ANTAGONIST, AND PHARMACEUTICAL COMPOSITION FOR PREVENTING OR TREATING CONGENITAL […] OR HYPOGLYCEMIA, COMPRISING SAME” (Hanmi Pharm. Co., Ltd., priority 2022, dated 2024).
